Source: patent publication US20060292151A1, “L-SIGN polymorphisms and methods involving use of same” (priority 2004, published 2006)

How the values were obtained:
L-SIGN-9 (human) [1] = experiment: flow cytometry on HeLa-SIGN transfectants
[2] = target: HeLa-SIGN transfectants (L-SIGN isoforms tested); experiment: flow cytometry, E2 at 5 µg/ml; upper end not tied to an isoform
L-SIGN-9 (human) [3] = experiment: flow cytometry, E2 at 5 µg/ml; lower end tied to L-SIGN-9 by the words L-SIGN-9 cells showing the lowest levels of binding
L-SIGN-7 (human) = L-SIGN-7 (human) (UniProt Q9H2X3); experiment: HCVpp supernatant on HeLa-SIGN transfectants, cell-bound p24 by ELISA
L-SIGN-7 (human), sequence (Q9H2X3 whole entry): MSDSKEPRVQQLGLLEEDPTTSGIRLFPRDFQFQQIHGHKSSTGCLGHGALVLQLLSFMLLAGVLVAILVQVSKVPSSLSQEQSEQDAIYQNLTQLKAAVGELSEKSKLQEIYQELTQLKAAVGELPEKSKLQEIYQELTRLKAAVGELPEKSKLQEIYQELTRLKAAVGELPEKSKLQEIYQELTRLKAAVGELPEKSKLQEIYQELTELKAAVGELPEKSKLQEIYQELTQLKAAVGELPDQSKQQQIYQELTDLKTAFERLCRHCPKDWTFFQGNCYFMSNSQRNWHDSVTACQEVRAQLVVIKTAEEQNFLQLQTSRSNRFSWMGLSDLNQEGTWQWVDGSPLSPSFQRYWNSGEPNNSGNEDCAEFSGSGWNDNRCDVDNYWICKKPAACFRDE

| Substance | fold lower binding than the other isoforms (L-SIGN-9 (human) [1]) [fold] | fold above background binding to parental HeLa [2] [fold] | specific binding, percent of cells [2] | fold above background binding to parental HeLa (L-SIGN-9 (human) [3]) [fold] | specific binding, percent of cells (L-SIGN-9 (human) [3]) | fold higher binding than to the other isoforms (L-SIGN-7 (human)) [fold] |
| --- | --- | --- | --- | --- | --- | --- |
| soluble E2 glycoprotein | 2 to 3 | 25 | 93 % of cells | 9 | 35 % of cells | – |
| HCV pseudovirus particles (HCVpp) (from UniProt P27958 192-383; P27958 384-746) (other; other documents disagree on this pair) | – | – | – | – | – | 2 |
